Laboratory results taken from the Human Domainome abundance scans (Beltran et al. 2025).
± gives the uncertainty stated by the source.

B1: CD2-associated protein, residues 271 to 331; numbered along this chain, Q9Y5K6 (parent)
chain: KEYCRTLFAYEGTNEDELTFKEGEIIHLISKETGEAGWWRGELNGKEGVFPDNFAVQINEL

Variants of: B1
Assay: abundance fitness (aPCA) (normalised: wild type 0, dead -1); higher = more abundant; growth selection in yeast, the domain comes from the species named
Details: Homo sapiens

I26Q and I26A are within error of each other in abundance fitness: -0.734 ± 0.15 for the first, -0.82 ± 0.14 for the second.

First: E22L
Second: E22I
The abundance fitness of the first is lower: -0.732 ± 0.067 for the first, -0.404 ± 0.16 for the second.

G37L and G37D are within error of each other in abundance fitness: -0.884 ± 0.12 for the first, -0.617 ± 0.17 for the second.

Compared with G12I, G12T is higher in abundance fitness: -0.887 ± 0.23 for the first, -0.425 ± 0.068 for the second.

First: T19N
Second: E17R
The abundance fitness of the first is higher: -0.153 ± 0.058 for the first, -0.483 ± 0.048 for the second.

Compared with E17Y, E17C is higher in abundance fitness: -0.463 ± 0.075 for the first, -0.182 ± 0.076 for the second.

Going from E17S to E17L, the abundance fitness falls from -0.259 ± 0.052 to -0.744 ± 0.065.

L7D and L7G are within error of each other in abundance fitness: -0.426 ± 0.14 for the first, -0.57 ± 0.11 for the second.

Going from A9R to N14A, the abundance fitness rises from -0.144 ± 0.037 to -0.023 ± 0.078.

N14S and A36Q are within error of each other in abundance fitness: -0.024 ± 0.061 for the first, 0.036 ± 0.12 for the second.

A36E and E15R are within error of each other in abundance fitness: -0.13 ± 0.091 for the first, -0.12 ± 0.048 for the second.

E15I and E15G are within error of each other in abundance fitness: -0.281 ± 0.13 for the first, -0.107 ± 0.061 for the second.

Compared with E15A, L28P is lower in abundance fitness: -0.072 ± 0.073 for the first, -0.614 ± 0.17 for the second.

L28H and F20L are within error of each other in abundance fitness: -0.623 ± 0.13 for the first, -0.709 ± 0.078 for the second.

Compared with F20A, P51W is higher in abundance fitness: -0.808 ± 0.089 for the first, -0.533 ± 0.071 for the second.

Compared with P51Q, P51L is lower in abundance fitness: -0.137 ± 0.1 for the first, -0.377 ± 0.068 for the second.

P51F and H27I are within error of each other in abundance fitness: -0.677 ± 0.38 for the first, -0.297 ± 0.18 for the second.

Going from D16K to D16I, the abundance fitness falls from 0.026 ± 0.087 to -0.699 ± 0.19.

First: D16P
Second: D16Q
The abundance fitness of the first is lower: -0.738 ± 0.086 for the first, -0.105 ± 0.072 for the second.

D16G and D52C are within error of each other in abundance fitness: 0.051 ± 0.048 for the first, 0.009 ± 0.12 for the second.

D52Y and D52A are within error of each other in abundance fitness: -0.085 ± 0.17 for the first, 0.053 ± 0.1 for the second.

D52F and V49C are within error of each other in abundance fitness: -0.142 ± 0.13 for the first, -0.11 ± 0.058 for the second.

V49N and V49W are within error of each other in abundance fitness: -0.099 ± 0.11 for the first, -0.111 ± 0.07 for the second.

Going from V49P to V49K, the abundance fitness rises from -0.713 ± 0.11 to 0.003 ± 0.089.

Going from V49L to I25N, the abundance fitness falls from -0.01 ± 0.038 to -0.451 ± 0.097.

I25C and T33F are within error of each other in abundance fitness: -0.485 ± 0.1 for the first, -0.32 ± 0.13 for the second.

Compared with K1E, I29D is lower in abundance fitness: -0.083 ± 0.083 for the first, -0.668 ± 0.24 for the second.

I29P and I29F are within error of each other in abundance fitness: -0.524 ± 0.096 for the first, -0.628 ± 0.12 for the second.

E35G and E35N are within error of each other in abundance fitness: -0.125 ± 0.13 for the first, 0.002 ± 0.11 for the second.

Going from E35K to E35W, the abundance fitness falls from 0.069 ± 0.08 to -0.358 ± 0.11.

E35P and N44Y are within error of each other in abundance fitness: -0.252 ± 0.067 for the first, -0.363 ± 0.084 for the second.

N44T and F50R are within error of each other in abundance fitness: -0.518 ± 0.064 for the first, -0.614 ± 0.066 for the second.

F50W and F50I are within error of each other in abundance fitness: -0.792 ± 0.11 for the first, -0.822 ± 0.2 for the second.

Compared with F50A, Q57A is higher in abundance fitness: -0.539 ± 0.082 for the first, -0.023 ± 0.061 for the second.

Compared with Q57E, Q57R is lower in abundance fitness: -0.016 ± 0.06 for the first, -0.155 ± 0.05 for the second.

First: Q57S
Second: Q57L
The abundance fitness of the first is lower: -0.182 ± 0.072 for the first, -0.046 ± 0.041 for the second.

N59D and N59E are within error of each other in abundance fitness: -0.145 ± 0.13 for the first, -0.05 ± 0.12 for the second.

N59T and N59K are within error of each other in abundance fitness: -0.147 ± 0.1 for the first, -0.274 ± 0.13 for the second.

L18V and L18M are within error of each other in abundance fitness: -0.524 ± 0.094 for the first, -0.335 ± 0.14 for the second.

L18K and L18I are within error of each other in abundance fitness: -0.744 ± 0.2 for the first, -0.513 ± 0.17 for the second.

G23K and G23I are within error of each other in abundance fitness: -0.646 ± 0.15 for the first, -0.613 ± 0.16 for the second.

First: G23L
Second: L61M
The abundance fitness of the first is lower: -0.941 ± 0.12 for the first, -0.003 ± 0.079 for the second.

Going from L61I to G48N, the abundance fitness falls from -0.29 ± 0.23 to -0.998 ± 0.3.

F8H and F8L are within error of each other in abundance fitness: -0.109 ± 0.081 for the first, -0.064 ± 0.039 for the second.

Compared with F8G, E60L is lower in abundance fitness: 0.028 ± 0.059 for the first, -0.296 ± 0.086 for the second.

E60R and V56E are within error of each other in abundance fitness: -0.178 ± 0.13 for the first, 0.003 ± 0.2 for the second.

V56S and V56N are within error of each other in abundance fitness: -0.243 ± 0.086 for the first, -0.339 ± 0.11 for the second.

V56C and E24Q are within error of each other in abundance fitness: -0.314 ± 0.13 for the first, -0.14 ± 0.062 for the second.

Going from E24V to E24N, the abundance fitness falls from -0.318 ± 0.046 to -0.824 ± 0.13.

Compared with E11R, E11G is lower in abundance fitness: -0.263 ± 0.047 for the first, -0.384 ± 0.069 for the second.

E11Y and E11H are within error of each other in abundance fitness: -0.19 ± 0.19 for the first, -0.151 ± 0.46 for the second.

E11P and Y10S are within error of each other in abundance fitness: -0.745 ± 0.14 for the first, -0.598 ± 0.067 for the second.

Compared with Y10P, L43C is higher in abundance fitness: -0.79 ± 0.2 for the first, -0.26 ± 0.16 for the second.

First: L43T
Second: R5E
The abundance fitness of the first is lower: -0.505 ± 0.096 for the first, -0.154 ± 0.18 for the second.

R5V and R5I are within error of each other in abundance fitness: -0.439 ± 0.066 for the first, -0.527 ± 0.062 for the second.

Compared with R5K, K21W is lower in abundance fitness: 0.182 ± 0.15 for the first, -0.538 ± 0.12 for the second.

Going from K21E to K46S, the abundance fitness falls from -0.015 ± 0.073 to -0.338 ± 0.062.

Going from K46D to K46H, the abundance fitness rises from -0.39 ± 0.19 to 0.083 ± 0.12.

K46L and K46N are within error of each other in abundance fitness: -0.223 ± 0.054 for the first, -0.286 ± 0.18 for the second.

G34S and G34P are within error of each other in abundance fitness: -0.014 ± 0.083 for the first, -0.181 ± 0.13 for the second.

First: G34C
Second: G41R
The abundance fitness of the first is higher: -0.064 ± 0.18 for the first, -0.909 ± 0.11 for the second.

G41S and G41Y are within error of each other in abundance fitness: -0.71 ± 0.083 for the first, -0.938 ± 0.23 for the second.

First: G45S
Second: K31I
The abundance fitness of the first is higher: -0.376 ± 0.064 for the first, -0.672 ± 0.091 for the second.

Compared with K31Y, E32H is higher in abundance fitness: -0.634 ± 0.076 for the first, -0.202 ± 0.049 for the second.

E32G and F54W are within error of each other in abundance fitness: -0.261 ± 0.057 for the first, -0.296 ± 0.13 for the second.

Going from F54E to F54R, the abundance fitness rises from -0.632 ± 0.13 to -0.004 ± 0.069.

W38T and A55G are within error of each other in abundance fitness: -0.404 ± 0.075 for the first, -0.322 ± 0.093 for the second.

A55D and A55Y are within error of each other in abundance fitness: -0.671 ± 0.14 for the first, -0.919 ± 0.33 for the second.

Y3E and Y3A are within error of each other in abundance fitness: -0.567 ± 0.17 for the first, -0.369 ± 0.071 for the second.

Y3Q and Y3P are within error of each other in abundance fitness: -0.775 ± 0.19 for the first, -0.75 ± 0.089 for the second.

Going from R40W to R40N, the abundance fitness falls from -0.377 ± 0.067 to -0.706 ± 0.17.

Compared with R40A, R40E is lower in abundance fitness: -0.426 ± 0.065 for the first, -0.604 ± 0.09 for the second.

First: R40D
Second: T13V
The abundance fitness of the first is lower: -0.546 ± 0.099 for the first, -0.083 ± 0.048 for the second.

First: T13K
Second: T13S
The abundance fitness of the first is higher: 0.108 ± 0.066 for the first, -0.051 ± 0.053 for the second.

Compared with C4E, E2T is higher in abundance fitness: -1.09 ± 0.24 for the first, -0.121 ± 0.083 for the second.

First: E2W
Second: E2V
The abundance fitness of the first is lower: -0.525 ± 0.14 for the first, -0.222 ± 0.064 for the second.

First: E2R
Second: E47W
The abundance fitness of the first is higher: -0.245 ± 0.063 for the first, -0.601 ± 0.15 for the second.

Going from E47S to E47Y, the abundance fitness falls from -0.052 ± 0.048 to -0.171 ± 0.059.

Going from E47R to E47G, the abundance fitness falls from -0.02 ± 0.076 to -0.479 ± 0.081.

E47Q and N53T are within error of each other in abundance fitness: 0.014 ± 0.13 for the first, 0.027 ± 0.065 for the second.

First: N53C
Second: W39E
The abundance fitness of the first is higher: -0.138 ± 0.044 for the first, -0.663 ± 0.12 for the second.

Compared with I58S, T6G is lower in abundance fitness: -0.233 ± 0.071 for the first, -0.528 ± 0.11 for the second.

T6H and E42Y are within error of each other in abundance fitness: -0.695 ± 0.21 for the first, -0.567 ± 0.18 for the second.

E42F showed an abundance fitness of -0.569 ± 0.2.
